Assay results taken from publication PMC7105911 (Journal of Molecular Biology, 2011).
“And” between values parts separate entries of the source, which are not always exact repeats. Equal entries are not always repeated.

Key:
Test in all cases: SPR
[1] = target: T1, BB_2cx5_001 (backbone grafting 2F5 epitope scaffold on parent PDB 2cx5) (designed scaffold on Thermus …)
T1 chain: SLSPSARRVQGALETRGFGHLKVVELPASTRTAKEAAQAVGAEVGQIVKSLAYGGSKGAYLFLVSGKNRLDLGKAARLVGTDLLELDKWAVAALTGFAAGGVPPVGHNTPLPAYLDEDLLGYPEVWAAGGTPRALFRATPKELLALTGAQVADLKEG

[2] = target: T2, BB_1wnu_001 (backbone grafting 2F5 epitope scaffold on parent PDB 1wnu) (designed scaffold on Pyrococcus …)
T2 chain: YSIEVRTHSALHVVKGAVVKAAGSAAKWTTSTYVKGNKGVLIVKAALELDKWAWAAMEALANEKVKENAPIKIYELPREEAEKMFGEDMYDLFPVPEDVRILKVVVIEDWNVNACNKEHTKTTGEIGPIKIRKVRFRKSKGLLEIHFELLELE

[3] = target: T3, SC_2cx5 (side-chain grafting 2F5 epitope scaffold on parent PDB 2cx5) (designed scaffold on Thermus …)
T3 chain: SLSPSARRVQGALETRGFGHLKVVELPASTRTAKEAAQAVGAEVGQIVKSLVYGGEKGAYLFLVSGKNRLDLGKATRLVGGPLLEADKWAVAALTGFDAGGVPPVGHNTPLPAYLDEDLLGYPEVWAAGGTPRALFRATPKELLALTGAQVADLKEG

[4] = target: T4, SC_1wnu (side-chain grafting 2F5 epitope scaffold on parent PDB 1wnu) (designed scaffold on Pyrococcus …)
T4 chain: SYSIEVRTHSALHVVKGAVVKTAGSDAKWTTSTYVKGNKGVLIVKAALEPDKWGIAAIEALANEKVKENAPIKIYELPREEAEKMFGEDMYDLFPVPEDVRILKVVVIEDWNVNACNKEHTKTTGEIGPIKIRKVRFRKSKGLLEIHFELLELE

Kd [1]: 1.4 nM
Kd [2]: 8.3 nM and 8.7 nM
Kd [3]: 40.2 nM and 38.3 nM
Kd [4]: 91 nM
Kd kinetic, step 1 (conformational change model) [4]: 0.000109 mM
Kd kinetic, step 2 (conformational change model) [4]: 3800 mM
B1: 2F5 monoclonal antibody (2F5 IgG) (antibody, V domains shown)
VH: RITLKESGPPLVKPTQTLTLTCSFSGFSLSDFGVGVGWIRQPPGKALEWLAIIYSDDDKRYSPSLNTRLTITKDTSKNQVVLVMTRVSPVDTATYFCAHRRGPTTLFGVPIARGPVNAMDVWGQGITVTISS
VL: ALQLTQSPSSLSASVGDRITITCRASQGVTSALAWYRQKPGSPPQLLIYDASSLESGVPSRFSGSGSGTEFTLTISTLRPEDFATYYCQQLHFYPHTFGGGTRVDVR
